For the test, the target named is T1, 重组人唾液酸结合免疫球蛋白样凝集素-9蛋白 (human, UniProt Q9Y336 18-348, limits assumed).
T1 construct: Purified recombinant protein coated on ELISA plates and (as 'antigen') coupled to the CM5 chip; also called recombinant human Siglec-9; Siglec9蛋白
The test is described as follows: SPR (Biacore X100), antigen coupled to CM5 chip, analyte 0-80 nM. Background: In SPR one partner is held on a chip, and binding of the other changes the refractive index at the surface.

T1 sequence (Q9Y336 18-348 limits assumed): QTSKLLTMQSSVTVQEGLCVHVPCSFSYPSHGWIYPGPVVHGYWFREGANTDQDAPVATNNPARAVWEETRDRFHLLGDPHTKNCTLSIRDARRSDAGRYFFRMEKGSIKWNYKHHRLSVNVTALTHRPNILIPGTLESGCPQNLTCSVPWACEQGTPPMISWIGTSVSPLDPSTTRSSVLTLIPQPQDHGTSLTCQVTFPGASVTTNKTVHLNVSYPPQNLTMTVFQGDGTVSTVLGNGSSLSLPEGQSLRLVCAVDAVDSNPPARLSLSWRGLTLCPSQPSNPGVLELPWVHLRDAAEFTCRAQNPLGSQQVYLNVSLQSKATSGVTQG

B1: 人源抗唾液酸结合免疫球蛋白样凝集素-9抗体IgG (antibody, V domains shown)
VH: EVQLVESGAEVKKPGASVKVSCKASGYIFTGYYMHWVRQAPGQGLEWMGWINPKSGGTNYAQKFQGRVTMTRDTSISTAYMELSRLRSDDTAVYYCVRDLGATGGDYWGQGTLVTVSS
VL: ELVLTQPPSVSVSPGQTARVTCSGDALPKKYAYWYQQKSGQAPILVIYGDNKRPSGIPERFSGSSSGTMATLTISGAQVEDEADYYCYSIDRSGNRVFGGGTRLTVLQ
notes: also called PA21抗体; 抗Siglec-9抗体
What is called Kd is a measure of binding affinity in units of concentration. Molecule B1 yielded a Kd of 0.738 nM.

The values are drawn from CN105367658A (ZHU JIN, dated 2016).
